Test results published in patent publication US20220062372A1, “METHODS FOR TREATING DISEASE AND REDUCING DRUG-INDUCED LIVER INJURY IN PATIENT POPULATIONS” (Ten Peaks LLC, priority 2020, published 2022).
Values belong to the substance of their own block, whether it stands above or below them. Where no end group is shown, it is not given here.

Columns and labels:
[1] = biological target: T1, HLA-B*39:01 and β2-microglobulin (Homo sapiens, UniProt P01889, A182T/A93T/A95T/C349S/D138N/D201E/E176V/E187T/E204Q/K202T/Q94N/R155S/R180L/S121R/Y140F/Y91C); experiment: Refolding of HLA complexes with synthetic peptides, G200 superdex chromatography (OD280); type: binding; conditions: for peptide binding and proper refolding of HLA-B*39:01 (peak in chromatogram): FIG. 2A-2D, FIG. 3; for binding to HLA-B*39:01 (results of the studies taken together): overall conclusion of Example 2, Tables 6 and 7 and FIGS. 2-4
T1 construct: made in house; host or cells: E. coli
Protocol: (§1) Refolding, characterization and purification of HLA complexes was performed as described (PMID: 12220628). Briefly, HLA-B*39:01 and β2-microglobulin were expressed in E. coli. Inclusion bodies were isolated, denatured in 8 M Urea and mixed with synthetic peptides derived from infliximab (Genscript) at a final concentration of 0.2 mg per ml protein, 6 M Urea, 20 mM Tris pH 8.0, 1 mM GSH, 10 mM GSSH for 24 hours, then dialyzed against 10 mM Tris pH 8.0 for 3 days. Samples concentrated to reduce the volume 10 fold, then loaded on a G200 superdex column calibrated with standards (http://www.bio-rad.com/webroot/web/pdf/1sr/literature/MSLIT-102E.pdf) in 10 mM Tris, 150 mM NaCl, at 0.75 ml per minute. OD280 was recorded for chromatographic analysis.
(§2) Results of the study are provided in FIGS. 2-4 and in Tables 6 and 7. In Tables 6 and 7, the IC50 (nM) for each peptide binding to HLA-B*39:01, HLA-B*05:01, HLA-B*35:01, or HLA-B*57:01 are shown in nM. […] In each of FIG. 2A-2D, the dotted line arrow points to the peak (or lack of a peak, for FIG. 2D) indicating peptide binding and proper refolding. […] The dotted line arrow points to the peak (or lack of a peak) indicating peptide binding and proper refolding. […] FIGS. 5A and 5B show an exemplary crystal structure of infliximab.

[2] = background description of the marketed drug; cited from earlier work
other HLAs = experiment: Peptide binding to other HLAs (overall conclusion of Example 2); set-up: species or system human
Protocol: A study was conducted to identify interactions between peptides present on the infliximab antibody and HLA-B*39:01. Peptides corresponding to heavy and light chain sequences of infliximab (chain H and L in PDB code 4G3Y) were predicted to bind class I HLA molecules based on the Stabilized matrix method (SMM) implemented in Immune Epitope Database and Analysis Resource (IEDB). Peptides predicted to bind with estimated Kd values less than 0.5 μM were considered candidate binders for: HLA-B*39:01, HLA-B*15:01, HLA-B*35:01, and HLA-B*57:01.
as §1, §2

[3] = HLA analysis of infliximab-DILI cases vs. matched controls and reference populations; type: in vivo, human; conditions: for OR vs. Ref 2 / OR vs. Ref 1 / OR vs. Control / OR: DILI after infliximab; for OR vs. Control: 25 Caucasian cases vs 60 controls; for OR: cases vs controls
Protocol: Samples from 25 Caucasians, 3 Africans, and 3 outliers subjects that had been treated with infliximab and had experienced DILI were obtained. These are referred to as “cases” here. These samples were compared to a set of 60 matched Caucasian and 6 matched African controls. […] The controls were matched for age, sex, ethnicity, and BMI where possible. Statistical analyses were performed to identify from these cases HLA alleles that are risk factors for the development of DILI following infliximab exposure. Significant alleles were determined using Fisher's Exact Test (FET) (p<0.05).
As a secondary comparison, the HLA profiles of the 25 Caucasian cases were compared to reference populations available at www.allelefrequencies.net. For calculating population presence rates, reference list entries were found by searching for “Caucasoid” ethnic origin subjects of gold-standard studies involving ≥100 subjects for alleles of interest on allelefrequencies.net. Sample sizes for the references represent the reported number of subjects directly typed for a given locus (i.e. USA NMDP European Caucasian reports 1,242,890 subjects typed for HLA-B and DRB1, but only 395,676 subjects typed for HLA-C; see Table 3).
In order to test for significant differences between the 31 Infliximab-DILI cases and the reference populations using Fisher's Exact Test (FET), counts of individuals carrying at least one copy of the allele in question were calculated one of two ways. If the population presence rate was available, the number of individuals was estimated by rounding the product of the population presence rate and the sample size for that HLA locus in that study. If no population presence rate was available, this number was estimated using the allele frequency rate and assuming Hardy-Weinberg equilibrium (HWE). That is, if the allele frequency is p, the number of individuals with the allele in question were calculated as [p^2+2*p*(1−p)]*Nsamples, where p^2+2*p*(1−p) represents the percentage of carriers if HWE is assumed, and N samples is the reference sample size for that locus.
The data sets individually analyzed were: Caucasian typed and/or Caucasian imputed; African typed and/or African imputed; and All Ethnicities typed and/or All Ethnicities imputed. “Typed only” means that only subjects with directly typed HLA alleles were considered in the indicated analysis. “Imputed only” means that only the imputed alleles (i.e., the subject's HLA profile was determined using known proxies for HLA subtypes in their genetic sequence) for each subject were used in the indicated analysis. “Imputed+Typed” means that all subjects were considered; here, directly typed HLA alleles were used if available, otherwise, imputed alleles were used.

Substance: ACTEMRA: interleukin-6 (IL-6) receptor antagonist
hepatic adverse reactions reported in patients [2]: Serious cases of hepatic injury have been observed

Substance: Certolizumab: anti-TNF antibody used for the treatment of autoimmune diseases
hepatic adverse reactions reported in patients [2]: Elevated liver enzymes and hepatitis have been reported

Substance: ENTYVIO: integrin receptor antagonist for ulcerative colitis or Crohn's disease
hepatic adverse reactions reported in patients [2]: reports of elevations of transaminase and/or bilirubin

Substance: GAZYVA: CD20-directed cytolytic antibody
hepatic adverse reactions reported in patients [2]: Hepatic enzyme elevations have occurred in CLL patients

Substance: Guselkumab: IL-23 blocker
hepatic adverse reactions reported in patients [2]: Elevated liver enzymes have been reported

Substance: Infliximab: mouse-human chimeric monoclonal antibody that binds to human tumor necrosis factor (TNF)
hepatic adverse reactions reported in patients [2]: known to cause hepatotoxicity, and even severe hepatic reactions that can be fatal or necessitate a liver transplant
OR vs. Ref 2 ([3]; B*39:01, 25 Caucasian cases vs England Northwest): 13.72
OR vs. Ref 1 ([3]; B*39:01, 25 Caucasian cases vs USA NMDP European Caucasian): 8.33
OR vs. Ref 2 ([3]; C*12:03, 25 Caucasian cases vs UK Pop 3): 4.56
OR vs. Ref 1 ([3]; C*12:03, 25 Caucasian cases vs USA NMDP European Caucasian): 3.02
OR vs. Control ([3]; DQA1*3:03): 18.82
OR vs. Ref 2 ([3]; DQA1*3:03, 25 Caucasian cases vs Netherlands pop 2): 0.87
OR vs. Ref 1 ([3]; DQA1*3:03, 25 Caucasian cases vs USA Caucasian Bethesda): 0.92
OR vs. Control ([3]; DQB1*02:01): 4.93
OR vs. Ref 2 ([3]; DQB1*02:01, 25 Caucasian cases vs USA Philadelphia Caucasian): 3.57
OR vs. Ref 1 ([3]; DQB1*02:01, 25 Caucasian cases vs USA San Antonio Caucasian): 2.54
OR vs. Control ([3]; DRB1*03:01): 4.24
OR vs. Ref 1 ([3]; DRB1*03:01, 25 Caucasian cases vs USA NMDP European Caucasian): 2.25
OR vs. Ref 2 ([3]; DRB1*03:01, 25 Caucasian cases vs USA Philadelphia Caucasian): 3.57
OR ([3]; HLA-A*02:01, African imputed + typed): 91.00
OR ([3]; HLA-B*39:01, Caucasian imputed + typed): 25.33
OR ([3]; HLA-C*07:01, All ethnicities imputed + typed): 2.77
OR ([3]; HLA-C*12:03, Caucasian imputed + typed): 5.85
OR ([3]; HLA-DPB1*04:02, African imputed + typed): 25.67
OR ([3]; HLA-DQA1*03:01, All ethnicities imputed + typed): 0.28
OR ([3]; HLA-DQA1*03:03, All ethnicities imputed + typed): 16.33
OR ([3]; HLA-DQB1*02:01, All ethnicities imputed + typed): 5.21
OR ([3]; HLA-DRB*03:01, All ethnicities imputed + typed): 4.50
risk of DILI following infliximab administration in subjects with HLA-B*39:01 ([3]; in words): associated with a higher risk of DILI

Substance: THQGLSSPV [SEQ ID NO: 1, THQGLSSPV]
binding to other HLAs (results of the studies taken together) (other HLAs): not to other HLAs
peptide binding and proper refolding of HLA-B*39:01 (peak in chromatogram) [1]: binding
binding to HLA-B*39:01 (results of the studies taken together) [1]: bind to HLA-B*39:01 at significant levels

Substance: TYSABRI: integrin receptor antagonist indicated for multiple sclerosis and Crohn's disease
hepatic adverse reactions reported in patients [2]: Significant liver injury, including liver failure requiring transplant, has occurred in patients

Substance: ZINBRYTA: CD25 (IL-2 receptor)-specific antibody used to treat multiple sclerosis
hepatic adverse reactions reported in patients [2]: can cause severe liver injury, including autoimmune hepatitis and liver failure

Substance: golimumab: TNF blocker
hepatic adverse reactions reported in patients [2]: reports of severe hepatic reactions including acute liver failure

More lines, main results first:

peptide binding and proper refolding of HLA-B*39:01 (peak in chromatogram) [1]: lack of binding
binding to HLA-B*39:01 (results of the studies taken together) [1]: does not bind
Substance: ACEVTHQGL [SEQ ID NO: 12]

binding to other HLAs (results of the studies taken together) (other HLAs): not to other HLAs
Substance: CQQSHSWPF [SEQ ID NO: 9, CQQSHSWPF]
binding to HLA-B*39:01 (results of the studies taken together) [1]: bind to HLA-B*39:01 at significant levels

binding to other HLAs (results of the studies taken together) (other HLAs): not to other HLAs
Substance: LQSSGLYSL [SEQ ID NO: 10, LQSSGLYSL]
binding to HLA-B*39:01 (results of the studies taken together) [1]: bind to HLA-B*39:01 at significant levels

binding to other HLAs (results of the studies taken together) (other HLAs): not to other HLAs
Substance: STSGGTAAL [SEQ ID NO: 11, infliximab heavy chain peptide]
binding to HLA-B*39:01 (results of the studies taken together) [1]: bind to HLA-B*39:01 at significant levels

binding to other HLAs (results of the studies taken together) (other HLAs): not to other HLAs
Substance: STYSLSSTL [SEQ ID NO: 7, infliximab light chain peptide]
binding to HLA-B*39:01 (results of the studies taken together) [1]: bind to HLA-B*39:01 at significant levels

binding to other HLAs (results of the studies taken together) (other HLAs): not to other HLAs
peptide binding and proper refolding of HLA-B*39:01 (peak in chromatogram) [1]: binding
Substance: TKGPSVFPL [SEQ ID NO: 2, TKGPSVFPL]
binding to HLA-B*39:01 (results of the studies taken together) [1]: bind to HLA-B*39:01 at significant levels

binding to other HLAs (results of the studies taken together) (other HLAs): not to other HLAs
Substance: TQSPAILSV [SEQ ID NO: 6, TQSPAILSV]
binding to HLA-B*39:01 (results of the studies taken together) [1]: bind to HLA-B*39:01 at significant levels

binding to other HLAs (results of the studies taken together) (other HLAs): not to other HLAs
Substance: VQWKVDNAL [SEQ ID NO: 8, VQWKVDNAL]
binding to HLA-B*39:01 (results of the studies taken together) [1]: bind to HLA-B*39:01 at significant levels

binding to other HLAs (results of the studies taken together) (other HLAs): not to other HLAs
Substance: YSLSSTLTL [SEQ ID NO: 5, YSLSSTLTL]
binding to HLA-B*39:01 (results of the studies taken together) [1]: bind to HLA-B*39:01 at significant levels
